The target of experiment [1] is T1, PD-L1 (on CHO-PD-L1 cells) (UniProt Q9NZQ7 19-290). The experiment in a line: FACS binding; Fig. 26.
In experiment [2] the target is T2, TIGIT (on CHO-TIGIT cells) (UniProt Q495A1 22-244).
T2 chain: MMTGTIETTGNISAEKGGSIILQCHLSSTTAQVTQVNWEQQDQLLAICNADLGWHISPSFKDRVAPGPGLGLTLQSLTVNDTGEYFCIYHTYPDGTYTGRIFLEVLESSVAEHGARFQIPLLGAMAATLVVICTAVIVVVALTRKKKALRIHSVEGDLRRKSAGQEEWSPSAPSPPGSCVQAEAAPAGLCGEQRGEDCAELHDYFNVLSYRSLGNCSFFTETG
The experiment can be described thus: FACS binding; Fig. 20. For orientation: A flow cytometer gives signals particle by particle.

Experiment [3] concerns the target T2, TIGIT (on CHO-TIGIT cells). The experiment in a line: FACS blocking of PVR binding to CHO-Tigit; Fig. 27.
The target in experiment [4] is T1, PD-L1 (on CHO-PD-L1 cells). The experiment can be described thus: FACS binding; Fig. 22.

Positions count from the first letter of the chain named.

Our source for the EC50 values is patent US20250277023A1 (published 2025).

T1 sequence (Q9NZQ7 19-290): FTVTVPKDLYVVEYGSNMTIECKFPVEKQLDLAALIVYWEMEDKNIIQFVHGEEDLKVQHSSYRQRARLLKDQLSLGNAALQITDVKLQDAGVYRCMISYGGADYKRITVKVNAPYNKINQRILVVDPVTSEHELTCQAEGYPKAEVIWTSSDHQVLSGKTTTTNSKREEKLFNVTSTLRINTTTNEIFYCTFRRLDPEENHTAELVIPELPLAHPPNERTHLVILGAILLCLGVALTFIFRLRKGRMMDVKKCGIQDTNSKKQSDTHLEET

B1: R1262: TIGIT VH-IL2Rα mutant-Fc/TIGIT VL-IL2 mutant/PD-L1_VH-hIgG1/PD-L1 VL-κ-Ig LC (bispecific antibody)
chain 1: QVQLVQSGAEVKKPGSSVKVSCKASGYSFTSYWMNWVRQAPGQGLEWIGMIRPSDSETRLNQMFKDRVTITVDKSTSTAYMELSSLRSEDTAVYYCAGIHDYGHGAYWGQGTLVTVSSGGGGSGGGGSGGGGSGGGGCGELCDDDPPEIPHATFKAMAYKEGTMLNCECKRGFRRIKSGSLYMLCTGNSSHSSWDNQCQCTSSATRNTTKQVTPQPEEQKERKTTEMQSPMQPVDQASLPGHCREPPPWENEATERIYHFVVGQMVYYQCVQGYRALHRGPAESVCKMTHGKTRWTQPQLICTGEPKSSDKTHTCPPCPAPELLGGPSVFLFPPKPKDTLMISRTPEVTCVVVDVSHEDPEVKFNWYVDGVEVHNAKTKPREEQYNSTYRVVSVLTVLHQDWLNGKEYKCKVSNKALPAPIEKTISKAKGQPREPQVYTLPPSREEMTKNQVSLTCRVKGFYPSDIAVEWESNGQPENNYKTTPPVLKSDGSFFLASKLTVDKSRWQQGNVFSCSVMHEALHNHYTQKSLSLSPGK
chain 2: not shown
heavy: EVQLQESGPGLVKPSETLSLTCAVYGDSITSGYWNWIRKPPGKGLEYMGYISYTGSTYQNPSLKSRITFSRDTSKNQYYLKLSSVTAADTATYYCARSRAWIRTYFDYWGQGTLVTVSSASTKGPSVFPLAPSSKSTSGGTAALGCLVKDYFPEPVTVSWNSGALTSGVHTFPAVLQSSGLYSLSSVVTVPSSSLGTQTYICNVNHKPSNTKVDKRVEPKSCDKTHTCPPCPAPELLGGPSVFLFPPKPKDTLMISRTPEVTCVVVDVSHEDPEVKFNWYVDGVEVHNAKTKPREEQYNSTYRVVSVLTVLHQDWLNGKEYKCKVSNKALPAPIEKTISKAKGQPREPQVYTLPPSREEMTKNQVSLWCLVKGFYPSDIAVEWESNGQPENNYDTTPPVLDSDGSFFLYSDLTVDKSRWQQGNVFSCSVMHEALHNHYTQKSLSLSPGK
light: EIVLTQSPDFQSVTPKEKVTITCSVSSSISSSNLHWYQQKPDQSPKLLIYGTSNLASGVPSRFSGSGSGTDFTLTINSLEAEDAATYYCQQWSSYPLTFGQGTKLEIKRTVAAPSVFIFPPSDEQLKSGTASVVCLLNNFYPREAKVQWKVDNALQSGNSQESVTEQDSKDSTYSLSSTLTLSKADYEKHKVYACEVTHQGLSSPVTKSFNRGEC
With B1, the EC50 in experiment [1] is 2.64 nM; in experiment [2], 11.3 nM; in experiment [3] it was 50.4 nM.

B2: R1115: TIGIT_VH_IL2RA/TIGIT_VL_IL2/PD-L1-Fab (bispecific antibody)
chain 1: B1 chain 1 with C138S
chain 2: not shown
heavy: B1 heavy
light: B1 light
Consider B2, for which the EC50 in experiment [4] was 3.72 nM; in experiment [1], 3.11 nM; in experiment [2], 15.7 nM; in experiment [3], 336 nM.

For orientation: EC50 means the concentration that produces a half-maximal response.
